Test results: WO2016008851A1 (dated 2016)

B1: 36C2 (original hybridoma antibody) (antibody, V domains shown)
VH: QVQLQQSGAELARPGTSLKMSCKATGYTFTNYWIAWVKQRPGYGLEWIGSIFPGGDYTNYNEKFKGKATLTADTSSSTSYMQLSSLTSEDSAIYYCTRPYYSNYGHFDYWGQGTTLTVSS
VL: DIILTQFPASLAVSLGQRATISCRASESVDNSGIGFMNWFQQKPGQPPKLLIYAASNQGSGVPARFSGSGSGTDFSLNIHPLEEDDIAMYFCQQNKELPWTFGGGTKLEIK
B2: 36C2 (recombinant chimeric antibody: mouse 36C2 variable domains, human IgG1 constant domains) (antibody, V domains shown)
VH: QVQLQQSGAELARPGTSLKMSCKATGYTFTNYWIAWVKQRPGYGLEWIGSIFPGGDYTNYNEKFKGKATLTADTSSSTSYMQLSSLTSEDSAIYYCTRPYYSNYGHFDYWGQGTTLTVSS
VL: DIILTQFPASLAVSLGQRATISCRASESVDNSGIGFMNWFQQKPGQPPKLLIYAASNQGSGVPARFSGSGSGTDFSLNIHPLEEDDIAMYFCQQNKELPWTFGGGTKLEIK
notes: also called chimeric antibody 36C2
B3: Antibody B1 (antibody, V domains shown)
VH: EVQLVQSGAEVKKPGASVKVSCKASGFSFTGYYMHWVRQAPGQGLEWVGLIIPHNDYTVNNQKFKGRVTMTRDTSTSTAYMELSSLRSEDTAVYYCARSDYYGAMDYWGQGTLVTVSS
VL: EIVMTQSPATLSVSPGERATLSCRASQNIGTSIHWYQQKPGQAPRLLIKYASNSIYGIPARFSGSGSGTEFTLTISSLQSEDIAVYYCQQGASWPPFTFGQGTKLEIK
B4: Antibody B3 (antibody, V domains shown)
VH: EVQLVQSGAEVKKPGASVKVSCKASGFSFTGYYMHWVRQAPGQGLEWVGLIIPHNDYTVNNQKFKGRVTMTRDTSTSTAYMELSSLRSEDTAVYYCARSDYYGAMDYWGQGTLVTVSS
VL: EIVMTQSPATLSVSPGERATLSCRASQNIGTSIHWYQQKPGQAPRLLIKYASDSVYGIPARFSGSGSGTEFTLTISSLQSEDIAVYYCQQGASWPPFTFGQGTKLEIK
B5: Antibody B4 (antibody, V domains shown)
VH: EVQLVQSGAEVKKPGASVKVSCKASGFSFTGYYMHWVRQAPGQGLEWVGLIIPHNDYTVNNQKFKGRVTMTRDTSTSTAYMELSSLRSEDTAVYYCARSDYYGAMDYWGQGTLVTVSS
VL: EIVMTQSPATLSVSPGERATLSCRASQNIGTSIHWYQQKPGQAPRLLIKYASDSKDGIPARFSGSGSGTEFTLTISSLQSEDIAVYYCQQGASWPPFTFGQGTKLEIK
B6: Antibody A1 (antibody, V domains shown)
VH: QVQLVQSGAEVKKPGASVKVSCKATGYTFTNYWIAWVKQAPGQGLEWMGSIFPGGDYTNYNEKFKGKVTMTRDTSTSTSYMELSSLRSEDTAVYYCARPYYSNYGHFDYWGQGTLVTVSS
VL: EIVLTQSPATLSLSPGERATLSCRASESVDNSGIGFMNWYQQKPGQAPKLLIYAASNQGSGIPARFSGSGSGTDFTLTISRLEPEDFAMYYCQQNKELPWTFGGGTKLEIK
B7: Antibody A3 (antibody, V domains shown)
VH: QVQLVQSGAEVKKPGASVKVSCKATGYTFTDYWIAWVRQAPGQGLEWMGSIFPGGDYTNYNEKFKGRVTMTRDTSTSTSYMELSSLRSEDTAIYYCARPYYSNYGHFDYWGQGTLVTVSS
VL: EIILTQFPATLSLSPGERATISCRASESVDNSGIGFMNWYQQKPGQAPRLLIYAASNQGSGIPARFSGSGSGTDFTLTISRLEPEDFAVYYCQQNKELPWTFGQGTKLEIK
B8: Antibody A4 (antibody, V domains shown)
VH: QVQLVQSGAEVKKPGASVKVSCKATGYTFTDYWIAWVRQAPGQGLEWMGSIFPGGDYTNYNEKFKGRVTMTRDTSTSTSYMELSSLRSEDTAVYYCARPYYSNYGHFDYWGQGTLVTVSS
VL: EIVLTQSPATLSLSPGERATLSCRASESVDNSGIGFMNWYQQKPGQAPRLLIYAASNQGSGIPARFSGSGSGTDFTLTISRLEPEDFAVYYCQQNKELPWTFGQGTKLEIK

Legend:
recombinant mouse IL-1B = recombinant mouse IL-1B (mouse, UniProt P10749 118-269); experiment: cell-based or functional assay
recombinant mouse IL-1B, sequence (P10749 118-269 limits assumed): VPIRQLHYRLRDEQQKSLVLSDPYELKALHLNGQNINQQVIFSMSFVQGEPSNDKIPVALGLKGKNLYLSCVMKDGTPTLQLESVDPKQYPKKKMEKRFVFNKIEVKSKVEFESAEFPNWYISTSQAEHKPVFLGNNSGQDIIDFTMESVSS

[1] = target: Endogenous human IL-1B (THP1 supernatants) (human, UniProt P01584 117-269); experiment: cell-based or functional assay
[2] = target: recombinant cynomolgus IL-1B (cynomolgus, UniProt P79182 117-268, limits assumed); experiment: cell-based or functional assay
recombinant cynomolgus IL-1B, sequence (P79182 117-268 limits assumed): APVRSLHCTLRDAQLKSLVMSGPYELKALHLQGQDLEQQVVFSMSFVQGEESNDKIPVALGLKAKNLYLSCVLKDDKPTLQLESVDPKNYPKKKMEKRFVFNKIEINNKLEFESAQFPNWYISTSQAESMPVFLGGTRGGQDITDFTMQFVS

recombinant human IL-1B [3] = target: T1, recombinant human IL-1B (human, UniProt P01584 117-269); experiment: cell-based or functional assay
recombinant human IL-1B [4] = target: T1, recombinant human IL-1B; experiment: Kinexa
recombinant human IL-1B [5] = target: T1, recombinant human IL-1B; experiment: Kinexa, solution equilibrium titration of hIL-1B against 10 pM antibody; mean ± SEM (N = 3)

Binder | IC50, mouse IL-1 B-induced KC release, mouse endothelial bEnd3 cells stimulated with 15 pM recombinant mouse IL-1 B (recombinant mouse IL-1B) | IC50, Endogenous human IL-1 B (THP1 supernatants), HEK blue [1] | IC90, Endogenous human IL-1 B (THP1 supernatants), HEK blue [1] | IC50, rec. cyno IL-1 B, HEK blue [2] | IC90, rec. cyno IL-1 B, HEK blue [2] | IC50, rec. human IL-1 B, HEK blue (recombinant human IL-1B [3]) | IC50, rec. human IL-1 B, MRC-5 (IL-6 production) (recombinant human IL-1B [3]) | IC90, rec. human IL-1 B, HEK blue (recombinant human IL-1B [3]) | IC90, rec. human IL-1 B, MRC-5 (IL-6 production) (recombinant human IL-1B [3]) | Kd (recombinant human IL-1B [4]) | Kd (recombinant human IL-1B [5]) | IC50, rec. mouse IL-1 B, HEK blue (recombinant mouse IL-1B) | IC90, rec. mouse IL-1 B, HEK blue (recombinant mouse IL-1B)
B1 | 0.5 nM | – | – | – | – | – | – | – | – | – | – | – | –
B2 | – | 3 pM | 96 pM | 14 pM | 154 pM | 17 pM | 7 pM | 150 pM | 44 pM | < 0.01 nM | 5.56 pM | – | –
B3 | – | 3 pM | 68 pM | 13 pM | 127 pM | 13 pM | 13 pM | 110 pM | 110 pM | – | – | – | –
B4 | – | 1 pM | 75 pM | 14 pM | 154 pM | 8 pM | 8 pM | 257 pM | 257 pM | – | – | – | –
B5 | – | 7 pM | 91 pM | 20 pM | 101 pM | 18 pM | 18 pM | 98 pM | 98 pM | – | – | – | –
B6 | – | 9 pM | 150 pM | 30 pM | 167 pM | 33 pM | 10 pM | 329 pM | 131 pM | – | – | 1140 pM | 3.25 nM
B7 | – | 8 pM | 246 pM | 23 pM | 236 pM | 42 pM | 13 pM | 340 pM | 162 pM | – | – | 998 pM | 3.64 nM
B8 | – | 36 pM | 262 pM | 26 pM | 205 pM | 40 pM | 16 pM | 495 pM | 125 pM | – | – | 1080 pM | 3.98 nM
